This note sets out measurements from paper PMC6018636, “Mutually exclusive acetylation and ubiquitylation of the splicing factor SRSF5 control tumor growth” (Nature Communications, 2018).

The assay concerns the target T1, His-Smurf1 (UniProt Q9HCE7-2 1-731).
T1 construct: Smurf1, inserted into pET-28a; also called His-tagged Smurf1; source: Escherichia coli BL21, purified
Put plainly: pull-down; bacteria-expressed GST-tagged protein immobilised on glutathione-Sepharose 4B beads, incubated with His-tagged protein for 8 h at 4 °C; washed with GST-binding buffer (100 mM NaCl, 50 mM NaF, 2 mM EDTA, 1% NP-40); immunoblotting. The note with it: both partners purified. On the technique in general: Immunoblotting shows a protein as a band on a membrane.

T1 sequence (Q9HCE7 other isoform, or with tags, fused parts or gaps): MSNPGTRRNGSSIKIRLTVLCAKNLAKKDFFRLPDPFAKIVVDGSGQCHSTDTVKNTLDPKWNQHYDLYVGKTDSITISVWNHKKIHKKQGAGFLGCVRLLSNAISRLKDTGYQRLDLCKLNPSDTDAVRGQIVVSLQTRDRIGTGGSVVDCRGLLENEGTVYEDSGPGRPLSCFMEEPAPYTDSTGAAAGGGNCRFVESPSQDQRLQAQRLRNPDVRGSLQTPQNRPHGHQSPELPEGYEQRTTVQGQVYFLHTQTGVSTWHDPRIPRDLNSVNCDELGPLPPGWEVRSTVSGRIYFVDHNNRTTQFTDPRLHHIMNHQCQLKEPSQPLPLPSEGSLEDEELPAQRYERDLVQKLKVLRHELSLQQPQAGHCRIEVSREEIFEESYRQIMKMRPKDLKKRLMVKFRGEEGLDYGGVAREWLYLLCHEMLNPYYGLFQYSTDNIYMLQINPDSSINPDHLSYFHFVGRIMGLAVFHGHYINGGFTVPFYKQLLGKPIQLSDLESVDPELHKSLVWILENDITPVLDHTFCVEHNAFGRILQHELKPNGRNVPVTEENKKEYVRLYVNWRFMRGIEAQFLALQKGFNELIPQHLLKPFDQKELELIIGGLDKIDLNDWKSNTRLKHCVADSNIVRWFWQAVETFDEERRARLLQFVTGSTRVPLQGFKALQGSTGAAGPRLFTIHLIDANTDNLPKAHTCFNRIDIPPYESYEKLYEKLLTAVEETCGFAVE

B1: GST-SRSF5 (natural protein, UniProt Q13243 1-272, looked up)
chain: MSGCRVFIGRLNPAAREKDVERFFKGYGRIRDIDLKRGFGFVEFEDPRDADDAVYELDGKELCSERVTIEHARARSRGGRGRGRYSDRFSSRRPRNDRRNAPPVRTENRLIVENLSSRVSWQDLKDFMRQAGEVTFADAHRPKLNEGVVEFASYGDLKNAIEKLSGKEINGRKIKLIEGSKRHSRSRSRSRSRTRSSSRSRSRSRSRSRKSYSRSRSRSRSRSRSKSRSVSRSPVPEKSQKRGSSSRSKSPASVDRQRSRSRSRSRSVDSGN
notes: splicing factor SRSF5, inserted into pGEX-6P-1; also called GST–SRSF5 fusion protein; source: Escherichia coli BL21, purified; immobilised on glutathione-Sepharose 4B beads
In the case of B1, the binding result is “binds”.
